The source of these data is the supplement of paper PMC9170038.

This data set relates to MS2 coat protein. Nature of the data set: apparent KD of MS2 coat protein; designed switch direction (-1 OFF switch, 1 ON switch): -1; higher = weaker reporter binding. Put shortly: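 RNA switches sharing common flanks were transcribed by stalled E. coli RNA polymerase on Illumina chips. A doubling series of SNAP-549-labelled MS2 coat protein, from 0.7 or 1.5 nM to 3 µM, was applied in Tris-HCl pH 7.5 buffer with KCl, MgCl2, BSA, DTT, tRNA and Tween-20. Each step lasted 0.8–1.5 h at the bottom of the series and 10–20 min at the top. Normalised cluster fluorescence was curve-fitted, giving apparent KD as the per-design median over clusters.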

Setting [1] is: input ligand: microRNA oligo, concentration not stated.
The mark [2] stands for this setting: Eterna round: R95, input ligand: microRNA oligo, concentration not stated.

On to “UGUUGUCGCGCAGGAUAUGAGGAUCACCCAUAUAAGGAUAUCGAAAGAGAAGUUCUGAGGAUCACCCAGAAGGGCGGGACAACU [pwkr exNG2 2xF5 2xFMN.32] (Eterna round: R96, puzzle: Exclusion NG 2)”, for which the “apparent KD of MS2 coat protein” value runs as follows: (input ligand: FMN 200 uM) 389 nM; under setting [1], 52.6 nM; (input ligand: none) 58.5 nM.
“UGUUGUCGCGCAGGAUAUGAGGAUCACCCAUAUAGAGGAUAUGAAAAGAAGGUUCUGAGGAUCACCCAGAAGGGCGGGACAACU [pwkr exNG2 2xF5 2xFMN.19] (Eterna round: R96, puzzle: Exclusion NG 2)”: the “apparent KD of MS2 coat protein” value worked out at 384 nM (input ligand: FMN 200 uM), 48.7 nM under setting [1] and 67.4 nM (input ligand: none).
For “UGUUGUCGCGCAGGAUAUGAGGAUCACCCAUAUCAGGAUAUCGAAAGAGAAGUUCUGAGGAUCACCCAGAAGGGCGGGACAACU [pwkr exNG2 2xF5 2xFMN.33] (Eterna round: R96, puzzle: Exclusion NG 2)”, the “apparent KD of MS2 coat protein” value amounted to 342 nM (input ligand: FMN 200 uM), 38 nM under setting [1] and 47.8 nM (input ligand: none).
Regarding “UGUUGUCGCGCAGGAUAUGCAUGAGGAUCACCCAUGCAACCACAUUUAACAUGAGGAUCACCCAUGUAGAAGGGCGGGACAACU [pwkr exNG2 2xF5 1xFMN.3] (Eterna round: R96, puzzle: Exclusion NG 2)”, the “apparent KD of MS2 coat protein” value (input ligand: FMN 200 uM) was found to be 89 nM, the “apparent KD of MS2 coat protein” value under setting [1] was 25 nM and the “apparent KD of MS2 coat protein” value (input ligand: none) worked out at 31.4 nM.
On the same counts, the results for “UGUUGUCGCGCAGGAUAUUGUCAACAGGCAAUAGGAUAUCCGAAAGGAGAAGGAUCGCCAACAGGCGAGAAGGGCGGGACAACU [pwkr exNG2 2xF7 2xFMN.4] (Eterna round: R96, puzzle: Exclusion NG 2)” are 35.4 nM, 478 nM and 1200 nM.
Take “UGUUGUUACGUAGGAUAUUGUCAACAGGCAAUAGGAUAUGCGAAAGCAGAAGGAUCGCCAACAGGCGAGAAGGACGGGUUAACA [pwkr exNG2 2xF7 2xFMN.2] (Eterna round: R96, puzzle: Exclusion NG 2)”: the “apparent KD of MS2 coat protein” value came out at 849 nM (input ligand: FMN 200 uM), 771 nM under setting [1] and 134 nM (input ligand: none).
In the case of “UGUUGUUCAGGAUAUGAUGUAUAAUACAUGAGGAUCACCCAUGUAGAUCCUGAAUUAACAUCAGAAGGGAAUAUUG [salish99_ex5_r4_101] (Eterna round: R97, puzzle: Exclusion 5)”, the “apparent KD of MS2 coat protein” value (input ligand: FMN 200 uM) was found to be 19 nM and the “apparent KD of MS2 coat protein” value (input ligand: none) amounted to 17 nM.
For “UGUUUGUCAGGAUAUGCUAGUGCUAGUGAAAGCUAGUGCUAGUAGAAGGGACAUGAGGAUCACCCAUGUGAACG [-27.1, -27 kcal, A 26%, 2bis-(ca)2] (Eterna round: R97, puzzle: Exclusion 4)”, the “apparent KD of MS2 coat protein” value (input ligand: FMN 200 uM) was 117 nM and the “apparent KD of MS2 coat protein” value (input ligand: none) is 54.1 nM.
In the case of “UUAAAGGCGGAGGAUAUGUAGGCUUUCGAGUCGACAGAAGGCCGCACAUGAGGAUCACCCAUGUGGUCCUCCAA [EX6 A.20] (Eterna round: R97, puzzle: Exclusion 6)”, the “apparent KD of MS2 coat protein” value is, setting by setting: (input ligand: FMN 200 uM) 219 nM; (input ligand: none) 51.8 nM.
As to “UUAAAUCAUGUAGGAUAUGCGUGGCAAAGCUAUGCAGAAGGACAUGAGGAUCACCCAUGUUCUAGCGUCUGCGUACAGAUGCUA [Mat - Exclusion NG 1 - Mod of JL - D77] (Eterna round: R96, puzzle: Exclusion NG 1)”, the “apparent KD of MS2 coat protein” value reads like this: (input ligand: FMN 200 uM) 249 nM; under setting [1], 34.9 nM; (input ligand: none) 42.6 nM.
As to “UUAAAUCAUGUAGGAUAUGCGUGGCGAAGCUAUGCAGAAGGACAUGAGGAUCACCCAUGUGCUUCCGUCUGAGAACAGACGGUA [Mat - Exclusion NG 1 - Mod of JL - D12] (Eterna round: R96, puzzle: Exclusion NG 1)”, the “apparent KD of MS2 coat protein” value (input ligand: FMN 200 uM) was determined as 91.8 nM, the “apparent KD of MS2 coat protein” value under setting [1] amounted to 63.9 nM and the “apparent KD of MS2 coat protein” value (input ligand: none) worked out at 93.1 nM.
Consider “UUAAAUCAUGUAGGAUAUGCGUGGCGAAGCUAUGCAGAAGGACAUGAGGAUCACCCAUGUUCUUCCGUCUGCGUACAGACGGAA [Mat - Exclusion NG 1 - Mod of JL - D38] (Eterna round: R96, puzzle: Exclusion NG 1)”, for which the “apparent KD of MS2 coat protein” value is, setting by setting: (input ligand: FMN 200 uM) 284 nM; under setting [1], 33.7 nM; (input ligand: none) 40.8 nM.
For the sequence “UUAAAUCAUGUAGGAUAUGCGUGGCGAAGCUAUGCAGAAGGACAUGAGGAUCACCCAUGUUCUUCCGUCUGCGUACAGAUGGAA [JL ENG1 1.08] (Eterna round: R96, puzzle: Exclusion NG 1)”, the “apparent KD of MS2 coat protein” value turned out to be 271 nM (input ligand: FMN 200 uM), 33.8 nM under setting [1] and 36.3 nM (input ligand: none).
For “UUAAAUCAUGUAGGAUAUGGAAGGCGAACCUAUCCAGAAGGACAUGAGGAUCACCCAUGUGCUGCGUUGUCCGUAGACAGCGCU [Ex NG1 #1] (Eterna round: R96, puzzle: Exclusion NG 1)”, the “apparent KD of MS2 coat protein” value was 114 nM (input ligand: FMN 200 uM), 29.5 nM under setting [1] and 36.2 nM (input ligand: none).
Regarding “UUAACAUGCUGGUGAUCAUACAUGAGGAUCACCCAUGUAACAAGCUUUUUGCUCGUCUUAUAAUUUAAGAUCACCAG [Stov1/7-A1] (Eterna round: R97, puzzle: Sensor, turn-off variant 1)”, the “apparent KD of MS2 coat protein” value is, setting by setting: (input ligand: FMN 200 uM) 17 nM; (input ligand: none) 15.9 nM.
For the sequence “UUAACAUGCUGGUGAUCAUACAUGAGGAUCACCCAUGUAACAAGCUUUUUGUUCGUCUUAUAAGAUUACUAGUAUGU [Stov1/10-B1] (Eterna round: R97, puzzle: Sensor, turn-off variant 1)”, the “apparent KD of MS2 coat protein” value is, setting by setting: (input ligand: FMN 200 uM) 39.4 nM; (input ligand: none) 59.4 nM.
In the same order, the values of “UUAAGUUCAGGAUAUGAUGAAUUAAACAUGAGGAUCACCCAUGUAGAUCCUGAAAUAACAUCAGAAGGGAAUAUUU [JL-ex5-4.51 Brourd mod] (Eterna round: R97, puzzle: Exclusion 5)” are 57 nM and 17.6 nM.
For the sequence “UUAAUACAUGUAGGAUAUGCGUGGCGAAGCUAUGCAGAAGGACAUGAGGAUCACCCAUGUUCAUGCGUCCGCGUACGGAUGCAA [JL Eng1 1.21 mod 7] (Eterna round: R96, puzzle: Exclusion NG 1)”, the “apparent KD of MS2 coat protein” value amounted to 19.9 nM (input ligand: FMN 200 uM), 12.6 nM under setting [1] and 14.9 nM (input ligand: none).
As for “UUAAUGGCUGUGAGGAUAUCGGAUAGAUAGAUAUUCGAGAAGGUACAUGAGGAUCACCCAUGUGUGAUUAGAGA [Brourd's EX4 #64] (Eterna round: R97, puzzle: Brourd's mod of Exclusion 4)”, the “apparent KD of MS2 coat protein” value was found to be 269 nM (input ligand: FMN 200 uM) and 244 nM (input ligand: none).
For the sequence “UUAAUGUGAGGAUAUCAGGUGUGCUAGCGUACUGGUACAUCUGAGAAGGCACAUGAGGAUCACCCAUGUUCUUC [JL-ex4-3.30 Brourd mod] (puzzle: Exclusion 4)”, the “apparent KD of MS2 coat protein” value under setting [2] was found to be 32.5 nM.
For the sequence “UUAAUGUGAGGAUAUGGUAAAGAUAAGAUGAUGAAAGAACUCCAGAAGGCACAUGAGGAUCACCCAUGUAGAUG [JL-ex4-2.14 Jieux mod] (puzzle: Exclusion 4)”, under setting [2], the “apparent KD of MS2 coat protein” value worked out at 35.6 nM.
Consider “UUAAUUAAUAAUUAAGAUCAUUACAUGAGGAUCACCCAUGUCGAGGAUAUCAGCUCGUUUAGAGCUGAGAAGGCGACAAAUUAU [ExNG3/13-B2] (Eterna round: R96, puzzle: Exclusion NG 3)”, for which the “apparent KD of MS2 coat protein” value reads like this: (input ligand: FMN 200 uM) 670 nM; under setting [1], 411 nM; (input ligand: none) 473 nM.
“UUAAUUAAUGUGAGGAUAUCUAGAGCUGCGGCUCUAGAGAAGGCACAUGAGGAUCACCCAUGUCUCAAUUAAUU [BmEx4/2-E3] (Eterna round: R97, puzzle: Brourd's mod of Exclusion 4)”: the “apparent KD of MS2 coat protein” value reads like this: (input ligand: FMN 200 uM) 21.6 nM; (input ligand: none) 14.7 nM.
On to “UUAAUUAAUUAACGCAGCAAGAUCACAUGAGGAUCACCCAUGUAGGAUAUCAGCUCGUGUAGAGCUGAGAAGGACAUAGCUGCG [ExNG3/1-A3] (Eterna round: R96, puzzle: Exclusion NG 3)”, for which the “apparent KD of MS2 coat protein” value reads like this: (input ligand: FMN 200 uM) 80.8 nM; under setting [1], 17.2 nM; (input ligand: none) 16.8 nM.
In the case of “UUAAUUAAUUAAGCGCAAGAUCACAUGAGGAUCACCCAUGUAUAGGAUAUCAGCUCGAUUAGAGCUGAGAAGGAUACAUAGCGC [ExNG3/2-A1] (Eterna round: R96, puzzle: Exclusion NG 3)”, the “apparent KD of MS2 coat protein” value under setting [1] was determined as 185 nM.
Turning to “UUAAUUAAUUGCGCAAGAUCACAUGAGGAUCACCCAUGUAUAUAGGAUAUCAGCUCGUUUAGAGCUGAGAAGGAUAUACAGCGC [ExNG3/3-A2] (Eterna round: R96, puzzle: Exclusion NG 3)”, the “apparent KD of MS2 coat protein” value (input ligand: FMN 200 uM) is 1320 nM, the “apparent KD of MS2 coat protein” value under setting [1] was 536 nM and the “apparent KD of MS2 coat protein” value (input ligand: none) was 488 nM.
Regarding “UUAAUUAAUUUAAUAUAAGAUCACAUGAGGAUCACCCAUGUAUAGGAUAUCAGCUCGAUUAGAGCUGAGAAGGAUACAUAAUAU [ExNG3/2-B1] (Eterna round: R96, puzzle: Exclusion NG 3)”, the “apparent KD of MS2 coat protein” value is 135 nM (input ligand: FMN 200 uM), 188 nM under setting [1] and 216 nM (input ligand: none).
As to “UUAAUUAAUUUAUUAGAUCCUCACAUGAGGAUCACCCAUGUGCAGGAUAUCAGCUCGAUUAGAGCUGAGAAGGGCACUAUAAAU [ExNG3/10-B1] (Eterna round: R96, puzzle: Exclusion NG 3)”, the “apparent KD of MS2 coat protein” value was determined as 65 nM (input ligand: FMN 200 uM), 56.4 nM under setting [1] and 62.2 nM (input ligand: none).
